Measurements: article PMC9784774, “Neutralization Epitopes in Trimer and Pentamer Complexes Recognized by Potent Cytomegalovirus-Neutralizing Human Monoclonal Antibodies” (Microbiology Spectrum, 2022)

Columns and labels:
Settings in all cases: both partners purified
[1] = target: T1, recombinant gH/gL/UL128/UL130/UL131A pentamer (wild type) (Human cytomegalovirus VR1814 (gH strain …, UniProt Q6SW67;F5HCH8;PDB)); assay: SPR; Biacore X100, CM5 chip, RT, 1:1 binding model; methods: antibody (4 μg/mL) captured by anti-human Fc IgG to about 100 RU, pentamer or trimer in five 2-fold dilutions injected at 30 μL/min, 90 s association, 600 s dissociation (the legend of Fig. 5 tells the reverse orientation)
T1 construct: also called CMV pentamer; HCMV pentamer complex; source: HEK293F, cotransfected with gH, gL, UL128, UL130 and UL131A plasmids, purified (Ni-NTA, SEC); not shown: His6, C-terminal, kept; copies: + + + +
T1 sequence (F5HCH8 whole entry, looked up, chain 1 of 2): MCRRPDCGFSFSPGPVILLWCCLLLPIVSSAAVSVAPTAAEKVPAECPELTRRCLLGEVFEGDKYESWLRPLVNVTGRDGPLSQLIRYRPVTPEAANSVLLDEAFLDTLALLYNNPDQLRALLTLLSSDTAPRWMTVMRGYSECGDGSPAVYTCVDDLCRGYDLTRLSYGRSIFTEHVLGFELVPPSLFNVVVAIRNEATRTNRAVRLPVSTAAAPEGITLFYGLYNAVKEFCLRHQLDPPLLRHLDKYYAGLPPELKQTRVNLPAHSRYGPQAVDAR
T1 sequence (Q6SW67 whole entry, looked up, chain 2 of 2): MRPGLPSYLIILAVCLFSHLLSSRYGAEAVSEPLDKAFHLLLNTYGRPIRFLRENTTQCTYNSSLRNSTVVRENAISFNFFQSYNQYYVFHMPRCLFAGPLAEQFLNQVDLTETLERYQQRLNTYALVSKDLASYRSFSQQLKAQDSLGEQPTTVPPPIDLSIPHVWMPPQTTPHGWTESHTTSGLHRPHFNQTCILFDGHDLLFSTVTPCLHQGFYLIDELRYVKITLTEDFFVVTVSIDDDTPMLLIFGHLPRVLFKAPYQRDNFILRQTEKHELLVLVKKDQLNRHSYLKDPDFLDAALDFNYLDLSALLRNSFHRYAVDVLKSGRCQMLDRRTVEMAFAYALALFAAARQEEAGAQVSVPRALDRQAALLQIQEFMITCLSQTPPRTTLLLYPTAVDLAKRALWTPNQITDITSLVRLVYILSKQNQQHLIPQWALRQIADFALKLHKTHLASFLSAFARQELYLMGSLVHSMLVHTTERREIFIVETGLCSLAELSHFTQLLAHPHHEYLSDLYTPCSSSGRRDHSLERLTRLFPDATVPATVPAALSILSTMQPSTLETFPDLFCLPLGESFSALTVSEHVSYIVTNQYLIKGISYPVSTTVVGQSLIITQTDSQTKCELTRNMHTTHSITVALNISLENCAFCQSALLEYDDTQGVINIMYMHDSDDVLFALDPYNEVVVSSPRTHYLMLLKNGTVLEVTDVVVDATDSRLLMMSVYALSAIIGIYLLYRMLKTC

[2] = target: T2, recombinant gH/gL/UL128/UL130/UL131A pentamer (wild type) (Human cytomegalovirus VR1814 (gH strain …, UniProt Q6SW67;F5HCH8;PDB)); assay: as above; remark: listed apart in the source
T2 construct: also called CMV pentamer; HCMV pentamer complex; source: HEK293F, cotransfected with gH, gL, UL128, UL130 and UL131A plasmids, purified (Ni-NTA, SEC); not shown: His6, C-terminal, kept; copies: + + + +
T2 sequence (F5HCH8 whole entry, looked up, chain 1 of 2): as the sequence (F5HCH8 whole entry, looked up, chain 1 of 2) above
T2 sequence (Q6SW67 whole entry, looked up, chain 2 of 2): as the sequence (Q6SW67 whole entry, looked up, chain 2 of 2) above

[3] = target: T2, recombinant gH/gL/UL128/UL130/UL131A …; assay: as above; remark: listed apart in the source
[4] = target: T1, recombinant gH/gL/UL128/UL130/UL131A …; assay: ELISA; pentamer, trimer or pentamer mutant coated at 100 ng/well (carbonate bicarbonate buffer pH 7.4, overnight 4°C); purified antibodies in eight serial 3-fold dilutions from 1 μg/mL, 37°C 1 h; detected with goat anti-human IgG (H+L)-HRP

B1: MAb MSL-109 (antibody, V domains shown)
VH: EEQVLESGGGLVKPGGSLRLSCAASGFTFSPYSVFWVRQAPGKGLEWVSSINSDSTYKYYADSVKGRFTISRDNAENSIFLQMNSLRAEDTAVYYCARDRSYYAFSSGSLSDYYYGLDVWGQGTLVTVSS
VL: DIVMTQSPLSLSVTPGEPASISCRSSQSLLHTNGYNYLDWYVQKPGQSPQLLIYLASNRASGVPDRFSGSGSGTDFTLKISRVETEDVGVYYCMQALQIPRTFGQGTKVEIK
notes: source: 293F cells, transient transfection, purified (protein A)
Kd [1]: 1.33 nM
koff [1]: 0.00156 s⁻¹
kon [1]: 1.17e+06 M⁻¹ s⁻¹

B2: MAb 9I6 (antibody, V domains shown)
VH: EVQLVQSGAEVKKPGESLKISCRESGDTFPAYWIAWVRQMPGKGLEWMGIIYPIDSETTYSPSFQGQVTISADKSINTAYLQWSSLKASDSAIYYCARGTSTGLREAFHIWGQGTMVTVSS
VL: DVVMTQSPLSLAVTLGQPAYISCRSSQSLGYSDGNTYLNWFQQRPGQSPRRLIYEVSNRDSGVPDRFSGSGSGTDFTLKISRVEAEDVGTYYCMQGTHWPPMCSFGQGTKLEIK
notes: as for B1
Kd [2]: 0.82 nM
koff [2]: 0.000139 s⁻¹
kon [2]: 168000 M⁻¹ s⁻¹
Kd [3]: 0.484 nM

B3: MAb 8I21 (antibody, V domains shown)
VH: LVELVESGGGVVQPGRSLRLSCAASGFTFSSDGMHWVRQSPGRGLEWVAFISSDGSTPYYADSVKGRFTISRDNSKNTLYLQMNSLRAEDTAMYFCAKDWALFRWLRTFDHWGQGTLVTVSS
VL: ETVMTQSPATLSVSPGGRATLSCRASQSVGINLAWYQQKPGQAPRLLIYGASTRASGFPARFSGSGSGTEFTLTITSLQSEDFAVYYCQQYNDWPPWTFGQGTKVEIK
notes: as for B1
binding result [4]: binds
